Literature values in PMC9213791.

Biological target: cardiac troponin C N-terminal domain (cNTnC) N-terminal domain (Homo sapiens) (UniProt P63316)
Sequence (P63316 1-89): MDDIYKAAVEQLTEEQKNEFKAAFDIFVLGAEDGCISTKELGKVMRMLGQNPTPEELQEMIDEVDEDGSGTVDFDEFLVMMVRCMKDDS

## cardiac troponin I switch peptide switch peptide (from UniProt P19429)
  Kd: 154 µM
